This is an account of results in patent publication US20240294650A1 (Alector, published 2024).

Assay [1] addresses T1, recombinant murine MerTK extracellular domain (mouse, UniProt Q60805 19-497).
T1 construct: also called Mouse MerTK; murine MerTK ECD; not shown: polyHis or TEVS/Thrombin/murine IgG2a-Fc tag
T1 sequence: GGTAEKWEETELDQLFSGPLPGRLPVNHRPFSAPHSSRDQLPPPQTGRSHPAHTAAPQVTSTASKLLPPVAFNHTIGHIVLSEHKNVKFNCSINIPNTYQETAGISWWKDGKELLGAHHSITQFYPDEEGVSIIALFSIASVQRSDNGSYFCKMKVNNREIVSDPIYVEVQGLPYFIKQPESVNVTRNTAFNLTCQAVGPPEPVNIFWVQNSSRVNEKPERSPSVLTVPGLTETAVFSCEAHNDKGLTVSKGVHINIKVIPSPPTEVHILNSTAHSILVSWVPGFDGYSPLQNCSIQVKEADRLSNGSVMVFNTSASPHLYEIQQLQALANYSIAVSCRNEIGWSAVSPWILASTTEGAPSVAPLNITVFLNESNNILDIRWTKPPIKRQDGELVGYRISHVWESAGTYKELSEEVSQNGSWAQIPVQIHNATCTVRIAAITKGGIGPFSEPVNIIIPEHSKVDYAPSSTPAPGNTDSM
As to the kind of experiment: SPR Carterra LSA.

In assay [2] the target is T2, MerTK C-terminal ECD Half-and-half chimera (human).
T2 construct: tested as culture supernatant; also called MerTK C-term half-and-half chimera; MerTK C-terminal ECD (FN1-FN2-JM) + Axl N-terminal ECD (NT-Ig1-Ig2)
T2 chain: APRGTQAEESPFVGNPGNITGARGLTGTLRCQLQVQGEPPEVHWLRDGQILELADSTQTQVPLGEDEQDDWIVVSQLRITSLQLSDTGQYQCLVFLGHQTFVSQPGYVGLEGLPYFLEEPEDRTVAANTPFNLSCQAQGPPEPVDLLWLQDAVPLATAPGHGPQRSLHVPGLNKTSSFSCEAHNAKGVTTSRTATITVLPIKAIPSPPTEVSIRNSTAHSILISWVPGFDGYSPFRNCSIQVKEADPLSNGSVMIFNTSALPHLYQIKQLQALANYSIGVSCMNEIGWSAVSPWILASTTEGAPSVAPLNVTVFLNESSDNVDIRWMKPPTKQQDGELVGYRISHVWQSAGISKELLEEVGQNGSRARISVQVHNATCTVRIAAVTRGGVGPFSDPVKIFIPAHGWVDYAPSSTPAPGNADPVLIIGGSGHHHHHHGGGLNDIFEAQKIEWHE
As to the kind of experiment: SPR, construct supernatant over immobilised Ab. The method in brief: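 First, each purified antibody is immobilised in duplicate by amine coupling. Next, supernatants holding the chimera or deletion constructs, diluted 1:1 with BSA-containing (0.5 mg/mL) HBS-TE, are injected. Last, surfaces are stripped with 10 mM glycine pH2.0 before the next construct.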
(In SPR one partner is held on a chip, and binding of the other changes the refractive index at the surface.)

B1: MTK-212 (antibody, human IgG1, V domains shown)
VH: QVQLQQSGPELVKPGASVKISCKASGYAFSSSWVNWVKQRPGKGLEWIGRIYPGDGDSNYNGNFKGKATLTADKSSNTAYLQLSSLTSEDSAVYFCARKSHFIYYTLDYWGQGTPVTVSS
VL: DIVMTQSHKFKSTSVGDRVSIACKASQDVGTSVAWYQQKPGKSPKLLIYWASSRHTGVPDRFTGSGSGTDFTLTISNVQSEDLTDYFCQQYSTYPYTFGGGTKLEIK
On to B1, for which, in assay [1], the “Ratio of KD for Mouse vs Human MerTK” value is 0.13 ratio. Also, the binding result in assay [2] was “no binding”.

B2: MTK-230 (antibody, human IgG1, V domains shown)
VH: EVQLQQSGPELVKPGASVRIPCKASGYTFSDYNMDWVKQSHGKSLEWIGNINPNIGGTIYSQKFKGKATLTVDKSSSTAYMELRSLTSEDTAVYYCARGDYGFASWGQGTLVTVSA
VL: DIVLTQSPASLTVSLGQRATISCRASRSVSTSGYSYMHWYQQKPGQPPKLLIYLASNLESGVPARFSGSRSGTDFTLNIHPVEEEDAATYYCQHSREYPFTFGSGTKLEIK
As for B2, in assay [1], the “Ratio of KD for Mouse vs Human MerTK” value stood at 3.5 ratio.

B3: MTK-214 (antibody, human IgG1, V domains shown)
VH: QVQLQQPGAELVKPGASVKVSCKASGYTFTNYWMHWMKQRPGQGLEWIGRIHPFDSDTNYNEKFTDKATLTVDKSSSTAYMQLSSLTSEDSAVYYCAIGTLIYWGQGTTLTASS
VL: DILLTQSPATLSVTPGETVSLSCRASQSIYKKLHWFQQRSHRSPRLLIKFASDSISGIPSRFTGSGSGTDYTLSINSVKPEDEAIYYCLQGYSTPLTFGAGTKLELK
Consider B3, for which the “Ratio of KD for Mouse vs Human MerTK” value in assay [1] amounted to 32 ratio.

B4: MTK-220 (antibody, V domains shown)
VH: EVQLVESGGGLVKPGGSLKLSCAASGFTFSDYGMHWVRQAPEKGLEWVAFISGGSGTIYYEDTVKGRFTISRDNAKNTLFLQMTSLRSEDTAMYYCTRGGNYFDYWGQGTTLTVSS
VL: NIMLTQSPSSLAVSAGEKVTMTCKSSQSVLYSSNQKNYLAWYQQKPGQSPKLLIYWASTRESGVPDRFTGSGSGTDFTLTISNVQAEDLAVYYCHQYFSSWTFGGGTKLEIK
With B4, in assay [2], the binding result was “no binding”.

B5: MTK-204 (antibody, human IgG1, V domains shown)
VH: EVQLVESGGGLVKPGGSLKLSCAASGFTFSDYGMHWVRQAPEKGLEWVAYISSGTSTIYYEDTVKGRFTISRDNAKNTLFLQMTSLRSEDTAMYYCARGGLLFDYWGQGTTLTVSS
VL: NIMMTQSPSSLAVSAGEKVTMSCKSSQSVLYSSNQKNYLAWYQQKPGQSPKLLIQWASTRESGVPDRFTGSGSETDFTLTIRSVQAEDLAVYYCHQYFSSWTFGGGTKLEIK
As for B5, in assay [2], the binding result is “no binding”.

B6: MTK-202 (antibody, human IgG1, V domains shown)
VH: EVQLVESGGGLVKPGGSLKLSCAASGFTFSDFGMHWVRQVPEKGLEWVAFISGGSNTIYYTDTVKGRFTISRDNAKNTLFLQMTSLRSEDTAMYYCVRNGNSFAYWGQGTLVTVSA
VL: NIMMTQSPSSLAVSAGEKVTMNCKSSQSVLYSSNQKNYLAWYQQKPGQSPKLLIYWASTRESGVPDRFTGSGSGTDFTLTISNIQAEDLAIYYCHQYFFSWTFGGGTKLEIK
As for B6, the binding result in assay [2] is “no binding”.

B7: MTK-228 (antibody, human IgG1, V domains shown)
VH: QDQLQQSGPELVKPGASVKISCKASGYSFTSYYIHWVKQRPGQGLEWVGWIFPGNGNTKYNERFKGKATLTADTSSSTAYMQLSSLTSEDSAVYYCARLGLIYALDYWGQGTSVTVSS
VL: DAVMTQTPLSLPVSLGDQASISCRSSQSLENSNGNTYLHWYLQKPGQSPQLLIYRVSNRFSGVLDRFSGSGSGTDFTLKISRVEAEDLGVYFCLQVTHVPFTFGSGTKLEIK
On to B7, for which the “Ratio of KD for Mouse vs Human MerTK” value in assay [1] came out at 0.04 ratio.

B8: MTK-226 (antibody, human IgG1, V domains shown)
VH: QVQLQQSGPELVKPGASVKISCKASGYSFTSYYIHWVKQRPGQGLEWIGWIFPGNGNTKYNENFRGKATLTADTSSSTAYMQLSSLTSEDSAVYYCARLGLIYALDYWGQGTSVTVSS
VL: DAVMTQTPLSLPVSLGDQASISCRSSQSLESSNGNTYLHWYLQKPGQSPQLLIYRVSNRFSGVLDRFSGSGSGTDFTLQISRVEAEDLGVYFCLQVTHVPFTFGSGTKLEIK
Regarding B8, the “Ratio of KD for Mouse vs Human MerTK” value in assay [1] is 0.05 ratio. In addition, the binding result in assay [2] was “no binding”.

B9: MTK-218 (antibody, human IgG1, V domains shown)
VH: QVQLQQSGPELVKPGTSVKISCKASGYSFTSYYIHWVKQRPGQGLDWIGWIFPGNRNTQYNEKFKGKATLTADTSSSTAYMQLSSLTSEDSAVYYCARLGLIYALDYWGQGTSVTVSS
VL: DAVMTQTPLSLPVSLGDQASISCRSSQSLENSNGHTYLHWYLQKPGQSPQLLIYRVSNRFSGVQDRFSGSGSGTDFTLKISRVEAEDLGVYFCLQVTHVPFTFGSGTKLEIK
Regarding B9, the “Ratio of KD for Mouse vs Human MerTK” value in assay [1] worked out at 0.1 ratio. The binding result in assay [2] is reported as “no binding”.

B10: MTK-225 (antibody, human IgG1, V domains shown)
VH: EVQLQQSGPELVKPGASVKIFCKASGYTFTAYNMDWVKQSHGKSLEWIGDINPNNGGTIYNQKFKGKATLTVDKSSSTAYMELRSLTSEDTAVYYCARRRRYGNTYYWYFDVWGTGTTVTVSS
VL: DIQMTQSPASLSVSVGETVTITCRASENIYSSLAWYQQKQGKSPQLLVYAATNLADGVPSRFSGSGSGTQFYLKINGLQSEDFGSYYCQHFWGTSYTFGGGTKLEIK
As for B10, the binding result in assay [2] was “no binding”.

B11: MTK-203 (antibody, human IgG1, V domains shown)
VH: QVQLQQPGAELVKPGASVKVSCKASGYTFTNYWMHWVKQRPGQGLEWIGRIHPFDTETNDNQKFKGKATLTVDKSSSTAYMQLSSLTSEDSAVYYCVIPANGGFAYWGQGTLVTVSA
VL: ETTVTQSPASLSVATGEKVTIRCITSTDIGDDMNWYQQKPGEPPKVLISEGNSLRPGVPSRFSSSGYGTDFVFTIENTLSEDVADYFCLQSDNLPLTFGSGTKLEIK
For B11, the “Ratio of KD for Mouse vs Human MerTK” value in assay [1] is 12.5 ratio.

B12: MTK-223 (antibody, human IgG1, V domains shown)
VH: DVQLQESGPGLVKPSQSLSLTCSVTGYSITSGYYWNWIRQFPGNKLEWMGYISYDGTNNYNPSLKNRISITRDTSENQFFLKLNSVTTEDTATYFCVRGAGYWGQGTTLTVSS
VL: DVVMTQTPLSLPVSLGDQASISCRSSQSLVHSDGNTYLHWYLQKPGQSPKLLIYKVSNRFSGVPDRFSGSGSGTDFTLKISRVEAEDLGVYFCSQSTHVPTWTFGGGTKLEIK
For B12, the binding result in assay [2] is given as “no binding”.

B13: MTK-231 (antibody, human IgG1, V domains shown)
VH: DVQLQESGPGLVKPSQSLSLTCSVTGYSITSGYYWNWIRQFPGNKLEWMGYISYDGTYNYHPSLKNRISITRDTSKNQFFLTLNSVTTEDTATFYCTRGGGYWGQGTSVTVSS
VL: DVVMTQTPLSLPVSLGDQASISCRSSQSLVHSDGNTYLHWYLQKPGQSPKLLIYKVSNRFSGVPDRFSGSGSGTDFTLKISRLEAEDLGIYFCSQTTHIPLTFGSGTKLEIK
In the case of B13, the binding result in assay [2] is on record as “no binding”.

B14: MTK-213 (antibody, human IgG1, V domains shown)
VH: QVQLQQPGAELVKPGASVKMSCKASGYTFTSYWITWVKQRPGQGHEWIGEIYPGIGSTNYNEKFKSKATLTVDTSSRTAYMQLSSLTSEDSAVYFCARGAYTKYYFDYWGQGTTLTVSS
VL: DIVMTQSHKFMSTSVGDRVSITCKASQDVGDAVAWYQQKPGQTPKLLIYWASTRHTGVPDRFTGSGSGTDFTLTISNVQSEDLADYFCQQYSSYLMYTFGGGTKLEIK
Turning to B14, the “Ratio of KD for Mouse vs Human MerTK” value in assay [1] was found to be 0.08 ratio. Moreover, the binding result in assay [2] is listed as “no binding”.

B15: MTK-227 (antibody, human IgG1, V domains shown)
VH: EVKLVESGGGLVQPGGSLSLSCAASGFTFTDNYMTWVRQPPGKALEWLGFSRNKANGYTTEYSASVKGRFTISRDSSQSILYLQMNALRAEDSGTYYCARFPPHYYAGGYFDVWGTGTTVTVSS
VL: DIQMTQSPASLSASVGETVTITCRASENIYSYLAWYQQKQGKSPQLLVYNAKTLAEGVPSRFSGSGSGTQFSLKINSLQPADFGSYYCQHYYRTPPTFGGGTKLEIK
As to B15, the “Ratio of KD for Mouse vs Human MerTK” value in assay [1] is 0.08 ratio.

B16: MTK-224 (antibody, human IgG1, V domains shown)
VH: QVQLQQPGAELVKPGASVKVSCKASGYTFTSYWMHWVKQRPGQGLEWIGRIHPFDSDTNYNQKFKGKATLTVDKSSSTAYMQLSSLTSEDSAVYYCSIAGFAYWGQGTLVTVSA
VL: DIVMTQSPATLSVTPGDRVSLSCRASQIISDYLNWYQQKSHESPRLLIKYASQSISGIPSRFSGSGSGSDFTLSINSVEPEDVGVYYCQNGHSFPLTFGAGTKLELK
For B16, the “Ratio of KD for Mouse vs Human MerTK” value in assay [1] came out at 64.2 ratio.

B17: MTK-209 (antibody, human IgG1, V domains shown)
VH: QVQLQQPGAELVKPGASVKVSCKASGYTFTNYWIHWVKQRPGQGLEWIGRIHPFDSEPNYNQKFKGKATLTVDKSSSTAYMHLTSLTSEDSAVYYCALASFAYWGQGTLVTVSA
VL: ETTVTQSPASLSMAMGEKATIRCITSTDIDDKMNWYQQKPGKPPKLLISAGNTLRPGVPSRFSSSGYGTDFVLTVENMLSEDVADYYCLQGGALPLTFGSGTKLEIK
With B17, the “Ratio of KD for Mouse vs Human MerTK” value in assay [1] amounted to 35.4 ratio.
